Legend:
[1] = test system: adult rat ventricular myocytes (ARVMs); assay: Calcium transients and cell shortening in adult rat ventricular myocytes; type: cell-based
Procedure: As done before,^69 adult male Wistar rats (150-200 g) were killed and hearts were quickly removed and cannulated via the ascending aorta on a Langendorff system where they were retrograde perfused and digested by type II collagenase. Hearts were perfused with calcium-free Tyrode's solution supplemented with 0.2 mmol/L of ethyleneglycol-bis-((3-aminoethylether)-N,N, N′,N′-tetraacetic acid for 3 minutes. For the digestion, hearts were perfused with Tyrode's solution containing 0.1 mmol/L of CaCl2), 1 mg/ml of type II collagenase (Worthington), and 1 mg/ml of BSA for 3 to 4 minutes at room temperature. Cells were resuspended in Tyrode's solution containing 1 mmol/L of CaCl2). Tyrode's solution contains 130 mM NaCl, 5.4 mM KCl, 0.4 mM NaH2PO4, 0.5 mM MgCl2, 25 mM N-2-hydroxyethylpiperazine-N-2-ethanesulfonic acid, and 22 mM glucose. Adult rat ventricular myocytes (ARVMs) were loaded with the fluorescent Ca^2+ dye Fluo-3 AM (Thermo Fisher Scientific) for cytosolic Ca^2+ measurements. […] Cytosolic Ca^2+ transients were recorded under 1 Hz of field stimulation using 2 parallel platinum electrodes. […] Cell contraction was stimulated as the difference in cell length between rest and contraction (during electrical stimulation), expressed as a percentage of shortening of the cell length. […]

[2] = test system: intact hearts isolated from adult mice; assay: Isolated heart contractility; parameters: species or system mouse; conditions: FGF23 9 ng/ml, 30 minutes
Procedure: Isolated heart contractility was performed as described previously. 14,70,71 Briefly, 2- to 3-month-old male CD-1 mice were anesthetized using 3% isoflurane and hearts were carefully removed and placed into oxygenated Ringer's solution composed of 140 mM NaCl, 2.0 mM KCl, 2.5 mM CaCl2), 1.0 mM MgSO4, 1.5 mM K2HPO4, 10 mM N-2-hydroxyethylpiperazine-N-2-ethanesulfonic acid, and 10 mM glucose (pH 7.4). Atria were then removed, and the intact ventricular muscle was attached to small metallic clips hung vertically from a force transducer (ADInstruments) between bipolar platinum-stimulating electrodes and suspended in 25-ml glass tissue chambers (ADInstruments). Heart muscles were perfused with Ringer's solution continuously bubbled with 100% O2 at room temperature. Hearts were stretched to the length of maximum force development and paced at 1 Hz (5 ms pulse duration, 30-60 V; Grass Instruments SD9 Square Pulse Stimulator). After a stable baseline was obtained, hearts were treated with either vehicle or FGF23 (9 ng/ml) alone or in combination with heparin (0.06 USP/ml) while contractile force output was monitored for 30 minutes. Contractile data were recorded and analyzed with LabChart 8 software (ADInstruments). Waveform changes were analyzed for peak contraction force (in millinewtons) and maximum slope of force development and presented as fold change from baseline values.

B1: FGF23: recombinant fibroblast growth factor 23 protein from R&D Systems (protein)
chain: YPDTSPLLGSNWGSLTHLYTATARTSYHLQIHRDGHVDGTPHQTIYSALMITSEDAGSVVITGAMTRRFLCMDLHGNIFGSLHFSPENCKFRQWTLENGYDVYLSQKHHYLVSLGRAKRIFQPGTNPPPFSQFLARRNEVPLLHFYTVRPRRHTRSAEDPPERDPLNVLKPRPRATPVPVSCSRELPSAEEGGPAASDPLGVLRRGRGDARGGAGGADRCRPFPRFV
- peak fluorescence [Ca2+]i transients (F/F0) ([1]; FGF23 10 ng/ml, 2 minutes perfusion): increased systolic
- cell contraction (cell shortening) ([1]; FGF23 alone): increased cell contraction
- peak contraction force [2]: increased cardiac contractile force

Reference: US20240384250A1, “FIBROBLAST GROWTH FACTOR 23 MODULATING COMPOUNDS” (THE UAB RESEARCH FOUNDATION, priority 2021, published 2024)
